Measurements from patent publication US20080085859A1, “Drug Promoting Ceramide Transport, Base Sequence for Producing the Drug, Method of Measuring Activity of Promoting Ceramide Release and Method of Measuring Activity of Promoting Intermembrane Ceramide Transfer” (JAPAN SCIENCE AND TECHNOLOGY AGENCY, priority 2003, published 2008).

Columns and labels:
[1] = ceramide release promotion activity from membrane; type: biochemical; settings: 14C-ceramide in phosphatidylcholine/phosphatidylethanolamine membrane, 37° C. 30 minutes, 14C in supernatant; FIGS. 14, 16
Experimental: (§1) Hereinafter, the standard method will be described in detail, however, even if the described conditions are changed, a method of detecting ceramide release promotion activity having means for separating releasing ceramide by a centrifugation principally belongs to the present invention. The lipid membrane containing ceramide was prepared so that it contains 12.5 nCi (225 pmol) per sample of [palmitoyl-1-^14C]N-palmitoyl-D-ethyro-sphigosine (hereinafter, may be referred to as ^14C-ceramide) on the basis of the mixed lipid consisting of phosphatidylcholine and phosphatidylethanolamine derived from egg yolk at the ratio of 4:1 and its concentration becomes 2.5 mg/mL. This lipid membrane is required at the rate of 20 μL per one sample of the activity measurement. […]
(§2) hCERT protein or its recombinant protein described above as a protein sample to be targeted (under the standard conditions, the amount of protein corresponding to 450 picomoles, which is 2-fold molar equivalent amount of ceramide contained in the donating membrane was used) were messed up to 30 μL using the buffer 2 [50 mM Hepes-NaOH buffer (pH7.4) to which 100 mM NaCl and 0.5 mM EDTA have been added]. […] The activity for promoting ceramide release with hCERT was calculated by measuring the radioactive activity of ^14C in the supernatant fraction using a liquid scintillation counter. […]

[2] = releasing reaction assay with other lipids as substrate (specificity); type: biochemical; settings: FIG. 15
Experimental: as §1, §2

B1: hCERT protein: human CERT protein having an amino acid sequence of SEQ ID NO:1 (protein)
chain: MSDNQSWNSSGSEEDPETESGPPVERCGVLSKWTNYIHGWQDRWVVLKNNALSYYKSEDETEYGCRGSICLSKAVITPHDFDECRFDISVNDSVWYLRAQDPDHRQQWIDAIEQHKTESGYGSESSLRRHGSMVSLVSGASGYSATSTSSFKKGHSLREKLAEMETFRDILCRQVDTLQKYFDACADAVSKDELQRDKVVEDDEDDFPTTRSDGDFLHSTNGNKEKLFPHVTPKGINGIDFKGEAITFKATTAGILATLSHCIELMVKREDSWQKRLDKETEKKRRTEEAYKNAMTELKKKSHFGGPDYEEGPNSLINEEEFFDAVEAALDRQDKIEEQSQSEKVRLHWPTSLPSGDAFSSVGTHRFVQKVEEMVQNHMTYSLQDVGGDANWQLVVEEGEMKVYRREVEENGIVLDPLKATHAVKGVTGHEVCNYFWNVDVRNDWETTIENFHVVETLADNAIIIYQTHKRVWPASQRDVLYLSVIRKIPALTENDPETWIVCNFSVDHDSAPLNNRCVRAKINVAMICQTLVSPPEGNQEISRDNILCKITYVANVNPGGWAPASVLRAVAKREYPKFLKRFTSYVQEKTAGKPILF
modifications: HeLa cell
activity for promoting ceramide release [1]: detected depending on the amount of hCERT and the length of incubating time
diacylglycerol releasing promotion, of the activity with respect to ceramide [2]: about 5%
releasing reaction with respect to diacylglycerol, cholesterol, phosphatidylcholine, sphingomyelin, sphingosine ([2]; substrate changed from ceramide to other lipids): did not indicate a significant releasing reaction
